In IntAct's records for PubMed 21300286:

B1: Tumor necrosis factor receptor superfamily member 6B (Homo sapiens), O95407 (parent)
chain: MRALEGPGLSLLCLVLALPALLPVPAVRGVAETPTYPWRDAETGERLVCAQCPPGTFVQRPCRRDSPTTCGPCPPRHYTQFWNYLERCRYCNVLCGEREEEARACHATHNRACRCRTGFFAHAGFCLEHASCPPGAGVIAPGTPSQNTQCQPCPPGTFSASSSSSEQCQPHRNCTALGLALNVPGSSSHDTLCTSCTGFPLSTRVPGAEECERAVIDFVAFQDISIKRLQRLLQALEAPEGWGPTPRAGRAALQLKLRRRLTELLGAQDGALLVRLLQALRVARMPGLERSVRERFLPVH
B2: Tumor necrosis factor ligand superfamily member 15 (Homo sapiens), O95150-1 (parent)
chain: MAEDLGLSFGETASVEMLPEHGSCRPKARSSSARWALTCCLVLLPFLAGLTTYLLVSQLRAQGEACVQFQALKGQEFAPSHQQVYAPLRADGDKPRAHLTVVRQTPTQHFKNQFPALHWEHELGLAFTKNRMNYTNKFLLIPESGDYFIYSQVTFRGMTSECSEIRQAGRPNKPDSITVVITKVTDSYPEPTQLLMGTKSVCEVGSNWFQPIYLGAMFSLQEGDKLMVNVSDISLVDYTKEDKTFFGAFLL
partner: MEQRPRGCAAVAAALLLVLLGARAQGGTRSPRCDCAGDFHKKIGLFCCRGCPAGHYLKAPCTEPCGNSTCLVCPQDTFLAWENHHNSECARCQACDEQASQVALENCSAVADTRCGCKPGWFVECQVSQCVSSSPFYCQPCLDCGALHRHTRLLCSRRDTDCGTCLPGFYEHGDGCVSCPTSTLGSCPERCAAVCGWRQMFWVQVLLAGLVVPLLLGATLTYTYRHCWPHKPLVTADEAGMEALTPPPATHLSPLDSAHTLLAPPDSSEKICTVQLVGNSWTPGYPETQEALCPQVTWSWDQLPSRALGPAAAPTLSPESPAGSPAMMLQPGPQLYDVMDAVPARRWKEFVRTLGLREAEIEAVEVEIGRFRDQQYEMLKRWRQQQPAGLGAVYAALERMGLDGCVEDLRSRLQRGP
B3: Tumor necrosis factor receptor superfamily member 6B (Homo sapiens), O95407 (parent)
chain: B1 chain
partner: B2 chain

Variants of: B1
Conditions: with TNFSF14, O43557-1
TNFSF14, O43557-1, sequence (O43557 whole entry): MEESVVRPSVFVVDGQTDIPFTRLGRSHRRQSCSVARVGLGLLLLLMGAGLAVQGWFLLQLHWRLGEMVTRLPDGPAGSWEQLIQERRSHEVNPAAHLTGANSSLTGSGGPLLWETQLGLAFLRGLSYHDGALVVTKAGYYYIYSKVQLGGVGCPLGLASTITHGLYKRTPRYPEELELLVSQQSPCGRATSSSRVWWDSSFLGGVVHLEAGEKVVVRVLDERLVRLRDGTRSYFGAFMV

Variant | effect of a mutation on the interaction
L85A;R89A | decreasing interaction

Variants of: B1
Conditions: with tnfl6_human FASLG

Variant | effect of a mutation on the interaction
L85A;R89A | disrupting interaction

Variants of: B2
Conditions: with TNFRSF25, Q93038-1

Variant | effect of a mutation on the interaction
C162S;S187A;E190A;C202S | disrupting interaction

Variants of: B3
Conditions: with TNFSF15, O95150-1

Variant | effect of a mutation on the interaction
L85A;R89A | decreasing interaction
